Laboratory results reported in US20260209359A1 (NEXTERA, published 2026).

Key:
[1] = molecular target: T1, HLA-A*02:01 loaded with MAGE-A8 homologue peptide, soluble biotinylated (human, UniProt P04439 25-299 at identity 0.94); P61769 21-119, biotinylated); test: pHLA phage capture ELISA
T1 construct: HLA monomer as for m1

[2] = molecular target: T2, HLA-A*02:01 loaded with MAGE-A3 homologue peptide, soluble biotinylated (human, UniProt P04439 25-299 at identity 0.94); P61769 21-119, biotinylated); test: pHLA capture ELISA: biotinylated pHLA on neutravidin, scFv-phage, anti-M13 antibody detection [cont.) C]
T2 construct: HLA monomer as for m1

[3] = molecular target: T3, HLA-A*02:01 loaded with MAGE-A9 homologue peptide, soluble biotinylated (human, UniProt P04439 25-299 at identity 0.94); P61769 21-119, biotinylated); test: as above
T3 construct: HLA monomer as for m1

[4] = molecular target: T4, HLA-A*02:01 loaded with MAGE-A10 homologue peptide, soluble biotinylated (human, UniProt P04439 25-299 at identity 0.94); P61769 21-119, biotinylated); test: as above
T4 construct: HLA monomer as for m1

[5] = molecular target: T5, HLA-A*02:01 loaded with MAGE-A11 homologue peptide, soluble biotinylated (human, UniProt P04439 25-299 at identity 0.94); P61769 21-119, biotinylated); test: as above
T5 construct: HLA monomer as for m1

[6] = molecular target: T6, HLA-A*02:01 loaded with MAGE-A12 homologue peptide, soluble biotinylated (human, UniProt P04439 25-299 at identity 0.94); P61769 21-119, biotinylated); test: as above
T6 construct: HLA monomer as for m1

[7] = molecular target: T7, HLA-A*02:01 loaded with MAGE-B2 homologue peptide, soluble biotinylated (human, UniProt P04439 25-299 at identity 0.94); P61769 21-119, biotinylated); test: as above
T7 construct: HLA monomer as for m1

[8] = molecular target: T8, HLA-A*02:01 loaded with MAGE-B4 homologue peptide, soluble biotinylated (human, UniProt P04439 25-299 at identity 0.94); P61769 21-119, biotinylated); test: as above
T8 construct: HLA monomer as for m1

[9] = molecular target: T9, HLA-A*02:01 loaded with MAGE-B6 homologue peptide, soluble biotinylated (human, UniProt P04439 25-299 at identity 0.94); P61769 21-119, biotinylated); test: as above
T9 construct: HLA monomer as for m1

[10] = molecular target: T10, HLA-A*02:01 loaded with MAGE-B10 homologue peptide, soluble biotinylated (human, UniProt P04439 25-299 at identity 0.94); P61769 21-119, biotinylated); test: as above
T10 construct: HLA monomer as for m1

[11] = molecular target: T11, HLA-A*02:01 loaded with MAGE-C2 homologue peptide, soluble biotinylated (human, UniProt P04439 25-299 at identity 0.94); P61769 21-119, biotinylated); test: as above
T11 construct: HLA monomer as for m1

[12] = molecular target: T12, HLA-A*02:01 loaded with MAGE-A1 homologue peptide, soluble biotinylated (human, UniProt P04439 25-299 at identity 0.94); P61769 21-119, biotinylated); test: as above
T12 construct: HLA monomer as for m1

[13] = molecular target: T13, HLA-A*02:01 loaded with MAGE-A2 homologue peptide, soluble biotinylated (human, UniProt P04439 25-299 at identity 0.94); P61769 21-119, biotinylated); test: as above
T13 construct: HLA monomer as for m1

B1: AM2 scFv displayed on phage (scFv)
scFv: QVQLVQSGAEVKKPGASVKVSCKVSGYTLTELSMHWVRQAPGKGLEWMGGFDPEDGETIYAQKFQGRVTMTEDTSTDTAYMELSSLRSEDTAVYYCATDQGSSWGFYWGQGTLVTVSSKLSGSASAPKLEEGEFSEARVDIRVTQSPSSLSASVGDRVTITCRASQNIMWYLNWYQQKPGKAPKLLIYAASSLQSGVPSRFSGSGSGTDFTLTISSLQPEDFATYYCQQSYSTPYTFGQGTKLEIK
notes: scFv on the surface of phage particles; also called AM2 phages
B1 was tested, and the “fold reduction of binding as compared to binding to HLA-A*02:01/MAGE-A4^230-239” value [1] was no less than 2 fold, the binding result [2] was “no binding (tested: 10^9 phages/well)” and the binding result [3] was “no binding (tested: 10^9 phages/well)”. B1: no binding (tested: 10^9 phages/well) [4]; no binding (tested: 10^9 phages/well) [5]; no binding (tested: 10^9 phages/well) [6]. B1: no binding (tested: 10^9 phages/well) [7]; no binding (tested: 10^9 phages/well) [8]; no binding (tested: 10^9 phages/well) [9]. B1: no binding (tested: 10^9 phages/well) [10]; no binding (tested: 10^9 phages/well) [11]; no binding (tested: 10^9 phages/well) [12]. B1: no binding (tested: 10^9 phages/well) [13].
